Assay results as given in PMC8569584.

Legend:
[1] = biological target: human ICAM-1 with a C-terminal Fc tag of human IgG1 (UniProt P05362); experiment: ICAM-1 binding to transfected HEK293FT cells (MFI normalized to integrin expression); details: 1 mM CaCl2 plus 1 mM MgCl2 (Ca/Mg), read off a plot
[2] = biological target: PAC-1; experiment: PAC-1 binding to transfected HEK293FT cells (normalized MFI); details: 1 mM Ca/Mg; parent: est. 4; read off a plot
[3] = biological target: mAb KIM127; experiment: mAb binding to transfected HEK293FT cells (MFI normalized to integrin expression); details: read off a plot
[4] = biological target: mAb m24; experiment: as above; details: read off a plot
[5] = 1 mM CaCl2 plus 1 mM MnCl2 (Ca/Mn), parent: est. 200
[6] = 1 mM CaCl2 plus 1 mM MnCl2 (Ca/Mn), parent: est. 230

Substance	response (normalized MFI) [2]	response (normalized MFI) ([3]; 1 mM Ca/Mg, parent: est. 80)	response (normalized MFI) [3, 5]	response (normalized MFI) [4, 6]	other results
integrin αLβ2 with the αL-GFFKR to GAAKR mutation and wild-type β2 (from UniProt P20701;P05107) β2:I698P					response (normalized MFI) ([1]; parent: est. 60): 84
αIIb WT + β3 WT αIIb:L959C; αIIb:R995C	110				
αIIb WT + β3 WT β3:P688C	6				
integrin αLβ2 with the αL-GFFKR to GAAKR mutation and wild-type β2 (from UniProt P20701;P05107) β2:L696P		52	180	260	response (normalized MFI) ([4]; 1 mM Ca/Mg, parent: est. 98): 75
integrin αLβ2 with the αL-GFFKR to GAAKR mutation and wild-type β2 (from UniProt P20701;P05107) β2:V699P		91	190	220	
αIIb WT + β3 WT αIIb:L959C; αIIb:F992C	34				
αL/β2 WT αL:FFAA (GFFKR to GAAKR)					response (normalized MFI) ([1]; parent: est. 5): 60; response (normalized MFI) ([3]; 1 mM Ca/Mg, parent: est. 18): 80; response (normalized MFI) ([3]; 1 mM CaCl2 plus 1 mM MnCl2 (Ca/Mn), parent: est. 44): 200; response (normalized MFI) ([4]; 1 mM CaCl2 plus 1 mM MnCl2 (Ca/Mn), parent: est. 58): 230
integrin αLβ2 with the αL-GFFKR to GAAKR mutation and wild-type β2 (from UniProt P20701;P05107) β2:I693P		30	110	140	response (normalized MFI) ([4]; 1 mM Ca/Mg, parent: est. 98): 33
integrin αLβ2 with the αL-GFFKR to GAAKR mutation and wild-type β2 (from UniProt P20701;P05107) β2:L692P		120	210	210	response (normalized MFI) ([4]; 1 mM Ca/Mg, parent: est. 98): 160
αIIb WT + β3 WT αIIb:L959C; αIIb:K994C	25				
αIIb WT + β3 WT αIIb:L959C; αIIb:F993C; β3:P688C	3				
αIIb WT + β3 WT αIIb:L959C; αIIb:G991C	150				
αIIb WT + β3 WT αIIb:L959C; αIIb:F993C	37				
integrin αLβ2 with the αL-GFFKR to GAAKR mutation and wild-type β2 (from UniProt P20701;P05107) β2:V691P		31	120	180	response (normalized MFI) ([4]; 1 mM Ca/Mg, parent: est. 98): 30
αIIb WT + β3 WT αIIb:L959C; αIIb:F992C; β3:P688C	3				
integrin αLβ2 with the αL-GFFKR to GAAKR mutation and wild-type β2 (from UniProt P20701;P05107) β2:I690P		60	170	200	response (normalized MFI) ([4]; 1 mM Ca/Mg, parent: est. 98): 67
αIIb WT + β3 WT αIIb:L959C; αIIb:R995C; β3:P688C	11				
αIIb WT + β3 WT αIIb:L959C; αIIb:K994C; β3:P688C	3				
αIIb WT + β3 WT αIIb:L959C; αIIb:G991C; β3:P688C	4				
